Assay results taken from patent US20240254229A1 (Molecular Partners, published 2024).
“And” between values parts separate entries of the source, which are not always exact repeats. Equal entries are not always repeated.

Key:
[1] = target: T1, hCD123 (recombinant, construct not stated) (human, UniProt P26951 19-305, limits assumed); experiment: switchSENSE, hCD33 and hCD123 co-immobilised 2:1; panel headed CD123
T1 construct: also called CD123 (Ligand 2)
T1 sequence (looked up): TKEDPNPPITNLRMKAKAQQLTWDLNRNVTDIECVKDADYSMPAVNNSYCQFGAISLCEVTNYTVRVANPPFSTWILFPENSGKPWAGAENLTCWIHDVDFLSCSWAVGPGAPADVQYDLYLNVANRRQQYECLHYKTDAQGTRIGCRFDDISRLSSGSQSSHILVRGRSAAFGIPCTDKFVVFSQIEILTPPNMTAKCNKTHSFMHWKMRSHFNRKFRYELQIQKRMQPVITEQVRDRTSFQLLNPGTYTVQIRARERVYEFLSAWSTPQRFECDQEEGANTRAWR
Protocol: (§1) The designed ankyrin repeat proteins: DARPin® protein #20, DARPin® protein #21, DARPin® protein #22, DARPin® protein #27, DARPin® protein #40 and DARPin® protein #41 were tested in a concentration of 0.16 and 64 nM (in a buffer PE140 containing 10 mM Na2HPO4/NaH2PO4, 140 mM NaCl, 0.05% Tween20, 50 μM EDTA, 50 μM EGTA) for binding against two ligands hCD33 and hCD123, which both were immobilized simultaneously to DNA nanolevers, on the surface, at a pre-defined ratio (2:1, CD33:CD123) and 10% density (100:50) on an ADP-48-1-0 chip, where 100% density 1000 receptors/μm2 (preincubated R1-B48-CD123 and G1-A48-CD33 (100 nM) diluted in cNL-48 (dark)). Briefly the following steps were performed: [0724] Conjugation. Amine coupling of the two ligands (CD33 and CD123) to the DNA nanolever (A48, B48, respectively) and purification of the conjugates using the proFIRE® solution (Dynamic Biosensors GmbH) at 25° C. [0725] Evaluation of all the combined affinity and avidity of all different proteins to both ligands attached on the surface of an ADP chip using a DRX+ instrument (dynamic BIOSENSORS). [0726] Statistical analysis (repeatability from 2 to 5 times) including regeneration of the chip surface every concentration analyzed and long dissociation times and data were fitted using a bi-exponential global fit.

[2] = target: T2, hCD33 (recombinant, construct not stated) (human, UniProt P20138 18-259, limits assumed); experiment: switchSENSE, hCD33 and hCD123 co-immobilised 2:1; panel headed CD33, column KD1; KD2 printed N.A.
T2 construct: also called CD33 (Ligand 1)
Protocol: as §1

[3] = target: T2, hCD33 (recombinant, construct not …); experiment: switchSENSE, CD33 and CD123 on one chip; monophasic; CD33-only control, monophasic
[4] = target: T1, hCD123 (recombinant, construct not …); experiment: switchSENSE, CD33 and CD123 on one chip; kon to CD123
Protocol: as §1

[5] = target: T1, hCD123 (recombinant, construct not …); experiment: switchSENSE; KD,1 (affinity); KD,1 (affinity), CD123
Protocol: as §1

[6] = target: T2, hCD33 (recombinant, construct not …); experiment: switchSENSE, CD33 and CD123 on one chip
Protocol: as §1

[7] = target: T1, hCD123 (recombinant, construct not …); experiment: switchSENSE, CD33 and CD123 on one chip
Protocol: as §1

[8] = target: T3, hCD33 and hCD123 immobilized simultaneously on one switchSENSE chip (ratio 2:1, CD33:CD123) (human, UniProt P20138 18-259; P26951 19-305, limits assumed); experiment: switchSENSE, CD33 and CD123 on one chip; fast phase (affinity)
T3 construct: Not a complex: two separate ligands on one surface; used for avidity values and for off-rates; also called both ligands; both targets attached to the surface of the chip
Protocol: as §1

[9] = target: T3, hCD33 and hCD123 immobilized …; experiment: switchSENSE, hCD33 and hCD123 co-immobilised 2:1; panel headed CD33, column KD2 (avidity, simultaneous binding of CD33 and CD123 per paragraph 694)
Protocol: as §1

[10] = target: T3, hCD33 and hCD123 immobilized …; experiment: switchSENSE, hCD33 and hCD123 co-immobilised 2:1; panel headed CD123, column KD2 (avidity, simultaneous binding of CD33 and CD123 per paragraph 694)
Protocol: as §1

[11] = target: T1, hCD123 (recombinant, construct not …); experiment: switchSENSE, hCD33 and hCD123 co-immobilised 2:1; panel headed CD123, column KD1 (affinity)
Protocol: as §1

[12] = target: T2, hCD33 (recombinant, construct not …); experiment: switchSENSE; KD,1 (affinity); KD,1 (affinity), CD33
Protocol: as §1

[13] = target: T3, hCD33 and hCD123 immobilized …; experiment: switchSENSE, CD33 and CD123 on one chip; fast phase (affinity); fast phase (affinity)
Protocol: as §1

[14] = target: T2, hCD33 (recombinant, construct not …); experiment: switchSENSE, hCD33 and hCD123 co-immobilised 2:1; panel headed CD33, column KD1 (affinity)
Protocol: as §1

[15] = target: T2, hCD33 (recombinant, construct not …); experiment: switchSENSE, CD33 and CD123 on one chip; kon to CD33
Protocol: as §1

[16] = target: T3, hCD33 and hCD123 immobilized …; experiment: switchSENSE, CD33 and CD123 on one chip; slow phase (avidity); slow phase (avidity)
[17] = target: T3, hCD33 and hCD123 immobilized …; experiment: switchSENSE, CD33 and CD123 on one chip; slow phase (avidity)
Protocol: as §1

[18] = target: T2, hCD33 (recombinant, construct not …); experiment: switchSENSE, hCD33 and hCD123 co-immobilised 2:1; panel headed CD33
Protocol: as §1

[19] = target: T1, hCD123 (recombinant, construct not …); experiment: switchSENSE, hCD33 and hCD123 co-immobilised 2:1; panel headed CD123, column KD1; KD2 printed N.A.
Protocol: as §1

[20] = target: T1, hCD123 (recombinant, construct not …); experiment: switchSENSE, CD33 and CD123 on one chip; monophasic; CD123-only control, monophasic
[21] = target: T4, biotinylated extracellular domain of human CD123 (SEQ ID NO: 88), Fc and Avi tagged (human, UniProt P26951 19-303, biotinylated with BirA-GST (Avi tag)); experiment: ribosome display selection, crude extract HTRF
T4 construct: also called hCD123
T4 sequence: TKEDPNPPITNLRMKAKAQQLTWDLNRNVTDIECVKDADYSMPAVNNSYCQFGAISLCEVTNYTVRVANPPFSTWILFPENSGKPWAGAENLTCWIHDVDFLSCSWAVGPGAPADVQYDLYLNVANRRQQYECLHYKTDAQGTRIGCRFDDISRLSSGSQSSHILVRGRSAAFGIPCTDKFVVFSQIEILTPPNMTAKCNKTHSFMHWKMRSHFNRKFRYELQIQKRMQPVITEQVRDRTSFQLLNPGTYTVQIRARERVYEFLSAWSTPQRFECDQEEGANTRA

T2 sequence (P20138 18-259 limits assumed): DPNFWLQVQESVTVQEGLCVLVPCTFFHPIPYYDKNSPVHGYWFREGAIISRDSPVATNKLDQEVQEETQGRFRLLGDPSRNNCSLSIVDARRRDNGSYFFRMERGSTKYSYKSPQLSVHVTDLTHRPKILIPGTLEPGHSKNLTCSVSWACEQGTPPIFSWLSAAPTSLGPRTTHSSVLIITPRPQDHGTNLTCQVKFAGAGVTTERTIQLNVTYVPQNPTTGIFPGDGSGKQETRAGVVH
T3 sequence (P20138 18-259 limits assumed, one chain of several): as the sequence (P20138 18-259 limits assumed) above

B1: DARPin® protein #40 (designed binder)
chain: DLGKKLLEAARAGQDDEVRELLKAGADVNAKDKDGYTPLHLAAREGHLEIVEVLLKAGADVNAKDKDGYTPLHLAAREGHLEIVEVLLKAGADVNAQDKSGKTPADLAADAGHEDIAEVLQKAAGSPTPTPTTPTPTPTTPTPTPTGSDLGVKLLLAASRGQLDEVRILLKAGADVNAKDIDEGYTPLHIAAYYGHLEIVEVLLKAGADVNAKDRYGKTPLHLAAISGHLEIVEVLLKAGADVNAQDDKGDTPADLAADYGHQDIAEVLQKAAGSPTPTPTTPTPTPTTPTPTPTGSDLGQKLLEAAWAGQDDEVRELLKAGADVNAKNSRGWTPLHTAAQTGHLEIFEVLLKAGADVNAKDDKGVTPLHLAAALGHLEIVEVLLKAGADVNAQDSWGTTPADLAAKYGHEDIAEVLQKAA
notes: also called Ni2C-αCD33-αCD3
binding result [1]: no binding
Kd [2]: 7.1 nM
koff [3]: 0.01 s⁻¹

B2: DARPin® protein #20 (designed binder)
chain: DLGKKLLEAARAGQDDEVRILMANGADVNALDWLGHTPLHLAAYEGHLEIVEVLLKNGADVNAIDDNNGFTPLHLAAIDGHLEIVEVLLKNGADVNAQDKFGKTAFDISIDNGNEDLAEILQKAAGSPTPTPTTPTPTPTTPTPTPTGSDLGDKLLLAATSGQDDEVRILLAAGADVNAKDYDGDTPLHLAADEGHLEIVEVLLKAGADVNAKDYSGSTPLHAAAAYGHLEIVEVLLKAGADVNAQDVFGYTPADLAAYVGHEDIAEVLQKAAGSPTPTPTTPTPTPTTPTPTPTGSDLGQKLLEAAWAGQDDEVRILLAAGADVNAKNSRGWTPLHTAAQTGHLEIFEVLLKAGADVNAKNDKRVTPLHLAAALGHLEIVEVLLKAGADVNARDSWGTTPADLAAKYGHGDIAEVLQKLA
notes: CD123-CD33-CD3; also called αCD123-αCD33-αCD3_1
kon [4]: 7e+06 M⁻¹ s⁻¹
Kd [5]: ~4.9 nM
kon [6]: ~1e+06 M⁻¹ s⁻¹
kon [7]: ~1e+07 M⁻¹ s⁻¹
koff [8]: ~0.01 s⁻¹ and 0.02 s⁻¹
Kd [9]: 0.7 nM
Kd [10]: 0.29 nM
Kd [11]: 4.9 nM
Kd [12]: ~17.6 nM
koff [13]: 0.03 s⁻¹
Kd [14]: 18 nM
kon [15]: 1.3e+06 M⁻¹ s⁻¹
koff [16]: 0.0015 s⁻¹
koff [17]: ~0.001 s⁻¹ and 0.001 s⁻¹

B3: DARPin® protein #41 (designed binder)
chain: DLGKKLLEAALEGQLDEVRELLKAGADVNAKDQEGYTPLHLAAALGHLEIVEVLLKAGADVNAKDSIGRTPLHLAAYKGHLEIVEVLLKAGADVNAQDLLGETPADLAAEQGHQDIAEVLQKAAGSPTPTPTTPTPTPTTPTPTPTGSDLGKKLLEAARAGQDDEVRELLKAGADVNAKDKDGYTPLHLAAREGHLEIVEVLLKAGADVNAKDKDGYTPLHLAAREGHLEIVEVLLKAGADVNAQDKSGKTPADLAADAGHEDIAEVLQKAAGSPTPTPTTPTPTPTTPTPTPTGSDLGQKLLEAAWAGQDDEVRELLKAGADVNAKNSRGWTPLHTAAQTGHLEIFEVLLKAGADVNAKDDKGVTPLHLAAALGHLEIVEVLLKAGADVNAQDSWGTTPADLAAKYGHEDIAEVLQKAA
notes: also called αCD123-Ni2C-αCD3
binding result [18]: no binding
Kd [19]: 4.2 nM
koff [20]: 0.06 s⁻¹

B4: DARPin® protein #35 (designed binder)
chain: DLGKKLLEAALEGQDDEVRELLKAGADVNAKDQEGYTPLHLAAALGHLEIVEVLLKAGADVNAKDSIGRTPLHLAAYKGHLEIVEVLLKAGADVNAQDLLGETPADLAAEQGHEDIAEVLQKAA
notes: CD123-specific domain; screened as crude extract
binding result [21]: binds
